How the values were obtained:
[1] = target: T1, human colonic mucus (Homo sapiens, UniProt Q02817); assay: Staining of human colon explants, two-photons microscopy
T1 construct: Segments of human colon (ascending, descending and sigmoid colon) were obtained from fully informed patients undergoing surgery; from tissue; host or cells: healthy human colon segments (live explants, mucus collected from them, Carnoy- or formol-fixed sections)
Protocol: FIGS. 3A-3B. Cy5-MUB70 colonic mucus binding property. (FIG. 3A) HT-29 MTX living cells were incubated for 2 h with Cy5-MUB70 in a serum-free media. The resulting fluorescent signal (red) was visualized at the surface of the cell layer using an epifluorescent microscope. Z-projection, performed using ImageJ software, allowed 3D localization of Cy5-MUB70 fluorescence signal in the mucus layer. Bar is 10 μm (FIG. 3B) MPE and SHG imaging of the binding of Cy5-MUB70 to the human colonic mucus. […] Human tissue autofluorescence is detected in the same red channel as Cy5.
FIGS. 8A-8D. (FIG. 8A) Cell toxicity of Cy5-MUB70 tested on HT-29-MTX and Hela epithelial cells. Cell survival was assessed using Sytoxgreen dye on cultures exposed to 1 μg/mL Cy5-MUB70 from 0 to 10 h, as indicated. […] Resulting fluorescent staining was assessed using a two-photons microscope (see Methods). Z-projection, performed using ImageJ software, allows 3D localization of Cy5-MUB70 fluorescence signal. […] Human tissue autofluorescence is detected in the same red channel as Cy5. […]
Two-photons microscopy imaging of live healthy human colonic segment was performed using a commercial laser-scanning microscope (LSM710, Meta, Zeiss, Germany). Tissue autofluorescence and Cy5-MUB70 (1 μg·ml^−1) were detected using multiphoton excitation (MPE, red) and collagen was detected using second harmonic generation (SHG, green). […]

[2] = system: neutrophiles (white blood cells) in rabbit ileum sub-mucosa; assay: Staining of neutrophiles in rabbit ileum sub-mucosa; settings: PFA 4% fixed rabbit ileum; colocalized with α-elastase (PMN) signal
Protocol: FIG. 13. Staining of individual neutrophiles (white blood cells) in rabbit ileum sub-mucosa. Cy5-MUB70 was incubated on PFA 4% fixed tissues. Signal was colocalized with an α-elastase (PMN) signal. (Primary antibody is α-elastase (PMN) 1:400 and secondary antibody is anti-mouse GFP 1:400, MUBCys5 1:400, Phalloidin-RRX 1:400). […] In particular, granules staining is achieved.

incubation time after which probe is widely detected in mucus layer ([1]; 1 mm thick mucus layer, human colon explant): 90 min
B1: Cy5-MUB70: Cy5-labelled MUB70 polypeptide, labelled via Cy5 maleimide on N-terminal cysteine (conjugate)
peptide: CVHVQYIDGETDQMLRQDDLDGYTDETIPYSTAEGIKKFEGDGYELFKDNFPAGEKFDNDDTNDQFYTVIF
mucus layer staining on human colon explants ([1]; ex vivo, 1 μg/mL, mucus width around 1000 μm, epithelium and lamina propria unstained): stained heterogeneously on the whole width
neutrophile staining in tissue [2]: binding specifically a neutrophile component

From patent US10138280B2, “Polypeptides targeting glycosylated MUC2 proteins, methods of synthesis, their nucleic acids and uses thereof” (INSTITUT PASTEUR, priority 2011, dated 2018)
